# Measured values from US20250163117A1 (CURE GENETICS, published 2025).
# T1: Human IL-2RA (IL-2Rα/CD25) protein (human, UniProt P01589 22-217, limits assumed)
# T1 construct: Receptor protein used as SPR ligand
# T1 sequence (looked up): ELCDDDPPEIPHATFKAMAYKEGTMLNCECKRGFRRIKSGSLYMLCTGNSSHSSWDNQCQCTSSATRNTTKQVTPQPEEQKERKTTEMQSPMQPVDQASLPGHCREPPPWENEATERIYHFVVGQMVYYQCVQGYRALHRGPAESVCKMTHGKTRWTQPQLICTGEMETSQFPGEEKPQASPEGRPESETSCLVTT
# T2: Human IL-2RB (IL-2Rβ/CD122) protein (human, UniProt P14784 27-239)
# T2 construct: Receptor protein used as SPR ligand
# T2 sequence (looked up): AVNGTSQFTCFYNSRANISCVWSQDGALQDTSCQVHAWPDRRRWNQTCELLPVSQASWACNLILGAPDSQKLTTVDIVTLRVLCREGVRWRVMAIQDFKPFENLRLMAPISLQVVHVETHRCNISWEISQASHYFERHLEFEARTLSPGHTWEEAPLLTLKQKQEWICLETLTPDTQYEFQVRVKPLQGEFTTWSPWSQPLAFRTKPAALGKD
# T3: Human IL-2RG (common γ receptor/CD132) protein (human, UniProt P31785 23-262, limits assumed)
# T3 construct: Receptor protein used as SPR ligand
# T3 sequence (looked up): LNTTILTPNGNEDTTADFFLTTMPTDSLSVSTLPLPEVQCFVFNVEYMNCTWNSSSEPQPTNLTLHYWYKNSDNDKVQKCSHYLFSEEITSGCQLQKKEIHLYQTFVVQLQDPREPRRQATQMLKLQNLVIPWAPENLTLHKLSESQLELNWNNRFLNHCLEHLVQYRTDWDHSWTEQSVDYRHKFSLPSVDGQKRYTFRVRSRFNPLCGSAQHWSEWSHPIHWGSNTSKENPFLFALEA
# T4: mouse intermediate-affinity IL-2 receptor IL-2Rβγ on cells (mouse, UniProt P16297 27-539; P34902 23-369)
# T4 sequence (looked up) 1: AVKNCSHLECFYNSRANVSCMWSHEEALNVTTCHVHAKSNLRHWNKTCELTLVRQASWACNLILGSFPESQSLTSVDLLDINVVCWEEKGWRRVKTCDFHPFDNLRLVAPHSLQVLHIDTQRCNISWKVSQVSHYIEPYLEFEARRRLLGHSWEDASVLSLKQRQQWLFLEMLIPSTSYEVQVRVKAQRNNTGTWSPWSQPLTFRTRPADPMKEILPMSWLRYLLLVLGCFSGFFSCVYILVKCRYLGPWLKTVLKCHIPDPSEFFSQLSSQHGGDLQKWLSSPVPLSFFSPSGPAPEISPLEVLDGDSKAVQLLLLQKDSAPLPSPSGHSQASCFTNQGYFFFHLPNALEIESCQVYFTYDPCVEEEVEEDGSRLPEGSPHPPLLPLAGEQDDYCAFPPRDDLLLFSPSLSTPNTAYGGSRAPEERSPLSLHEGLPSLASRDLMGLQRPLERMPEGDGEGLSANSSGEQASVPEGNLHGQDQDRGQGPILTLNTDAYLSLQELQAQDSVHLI
# T4 sequence (looked up) 2: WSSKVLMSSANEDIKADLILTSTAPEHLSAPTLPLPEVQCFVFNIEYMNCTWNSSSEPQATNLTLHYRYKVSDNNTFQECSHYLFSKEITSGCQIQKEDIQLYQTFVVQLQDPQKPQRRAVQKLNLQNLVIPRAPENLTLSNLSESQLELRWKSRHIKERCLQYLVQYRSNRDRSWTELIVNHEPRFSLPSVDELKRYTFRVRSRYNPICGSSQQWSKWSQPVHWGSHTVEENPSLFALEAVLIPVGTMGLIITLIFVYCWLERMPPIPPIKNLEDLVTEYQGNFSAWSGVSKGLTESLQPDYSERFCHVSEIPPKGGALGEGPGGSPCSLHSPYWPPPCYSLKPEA
# T5: mouse high-affinity IL-2 receptor IL-2Rαβγ on cells (mouse, UniProt P01590 22-268; P16297 27-539; P34902 23-369)
# T5 sequence (looked up) 1: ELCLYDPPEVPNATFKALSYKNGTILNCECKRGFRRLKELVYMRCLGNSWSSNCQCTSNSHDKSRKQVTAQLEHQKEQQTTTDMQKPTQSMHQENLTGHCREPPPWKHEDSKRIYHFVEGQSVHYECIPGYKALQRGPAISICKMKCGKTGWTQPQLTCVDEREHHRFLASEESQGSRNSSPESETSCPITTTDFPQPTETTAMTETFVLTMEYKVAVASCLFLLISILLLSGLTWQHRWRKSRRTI
# T5 sequence (looked up) 2: T4 sequence (looked up) 1
# T5 sequence (looked up) 3: T4 sequence (looked up) 2
# T6: Human IL-2Rβ&IL-2Rα&IL-2Rγ protein (human, UniProt P14784 27-239; P01589 22-217; P31785 23-262, limits assumed)
# T6 construct: Trimeric receptor protein used as SPR ligand; also called IL-2Rαβγ; Human IL-2RB&IL-2RA&IL-2RG
# T6 sequence (looked up) 1: T2 sequence (looked up)
# T6 sequence (looked up) 2: T1 sequence (looked up)
# T6 sequence (looked up) 3: T3 sequence (looked up)
# T7: Human IL-2Rβ&IL-2Rγ heterodimer protein (human, UniProt P14784 27-239; P31785 23-262, limits assumed)
# T7 construct: Heterodimer protein used as SPR ligand; also called IL-2Rβγ; Human IL-2RB&G
# T7 sequence (looked up) 1: T2 sequence (looked up)
# T7 sequence (looked up) 2: T3 sequence (looked up)
# B1: CP-trIL-2 012 (ligand)
# chain: PTSSSTKKTQLQLEHLLLDLQMILNGINNYKNPLRPRDLISNINVIVLELKGSETTELKHLQSLEEELKDLEEVLNLAQSKNFHTIVEFLNRWITFSQSIISTLT
# notes: H1-H3-H2-H4; loops 1 and 2 removed; de-Ala1, C58S, C125S, P65D
# Assays:
# [1] = molecular target: T1, Human IL-2RA (IL-2Rα/CD25) protein; test: SPR (Biacore, receptor immobilised on CM5 chip, IL-2 as analyte)
# Protocol: (§1) The human IL-2 receptors used in this study included IL-2Rα/CD25, IL-2Rβ/CD122, common γ receptor/CD132, IL-2Rβ&IL-2Rγ heterodimer protein, and IL-2Rβ&IL-2Rα&IL-2Rγ protein. The IL-2 receptor proteins were immobilized on a Biacore™ sensor chip CM5 according to manufacturer's protocol. […] The resulting sensorgrams were analyzed with the native instrument software to calculate the binding affinities.
# [2] = molecular target: T2, Human IL-2RB (IL-2Rβ/CD122) protein; test: as above
# Protocol: as §1
# [3] = molecular target: T3, Human IL-2RG (common γ receptor/CD132) …; test: as above
# Protocol: as §1
# [4] = molecular target: T4, mouse intermediate-affinity IL-2 …; test: cell-based or functional assay
# [5] = molecular target: T5, mouse high-affinity IL-2 receptor …; test: cell-based or functional assay
# [6] = molecular target: T6, Human IL-2Rβ&IL-2Rα&IL-2Rγ protein; test: SPR (Biacore, receptor on CM5 chip, IL-2 as analyte), 1:1 binding
# Protocol: as §1
# [7] = molecular target: T7, Human IL-2Rβ&IL-2Rγ heterodimer protein; test: as above
# Protocol: as §1
binder,measurement,setting,value
B1,binding result,[1],no binding (tested: 0.977-250 nM)
same,binding result,[2],no binding (tested: 7.813-250 nM)
same,binding result,[3],no binding (tested: 0.977-500 nM)
same,"% pSTAT5 in mouse splenocytes at High IL-2v concentration (25 nM per paragraph 254); western blot, pSTAT5/STAT5 normalised to 001 High",[4],126%
same,"% pSTAT5 in mouse splenocytes at Low IL-2v concentration (2.5 nM per paragraph 254); western blot, pSTAT5/STAT5 normalised to 001 High",[5],22.8%
same,Kd,[6],575 pM
same,koff,[6],0.000732 s⁻¹
same,kon,[6],1.27e+06 M⁻¹ s⁻¹
same,Kd,[7],467 pM
same,koff,[7],0.00106 s⁻¹
same,kon,[7],2.28e+06 M⁻¹ s⁻¹
